B1: WEE1 (parent)
chain: INPFTPDSLLLHSSGQCRRRKRTY

Variants of: B1
Assay: protein stability index of a GFP-peptide fusion (GPS, HEK-293T) (PSI 1-6); higher = more stable
Settings: c terminus: a fixed tail appended
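Also: lentivirally expressed fusions sorted by FACS into six bins by GFP to DsRed ratio, PSI derived from sequencing read proportions per bin multiplied by bin number.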

Protein stability index of substitutions, site by site:
Q16: A 3.31, C 2.8, E 3.69, D 3.45
L10: I 3.61, V 3.81, M 3.38, N 3.85, F 3.42, H 4.01, P 4.07, K 3.2, Q 3.5, R 3.76, E 3.41, G 3.83, W 3.43, A 3.96, T 4.03, C 3.68, D 3.9, S 3.88, Y 2.89
S13: Q 3.44, Y 3.29, P 3.63, G 3.17, M 2.84, A 2.6, I 2.85, K 3.69, W 2.54, V 2.61, E 4.01, H 4.14, D 4.08, C 2.21, F 2.3, N 3.74, T 3.74, R 3.12, L 2.64
S8: F 2.5, K 3.35, H 3.83, I 2.6, Q 3.73, A 3.42, E 4.08, N 3.75, Y 2.65, M 2.75, R 2.71, L 2.82, D 4, G 3.44, V 3.25, W 3.5, P 2.77, T 2.81, C 2.73
G15: S 3.02, N 3.89, V 2.79, Q 3.72, T 3.21, M 2.84, Y 2.9, W 2.54, E 3.41, C 2.26, D 3.39, R 4.12, I 2.92, F 1.99, A 3.71, H 2.72, P 3.05, L 3.56, K 3.85
H12: N 3.19, R 3.59, W 2.19, Q 2.94, L 2.86, I 3.6, K 3.54, P 3.4, M 3.32, G 3.18, S 3.87, Y 2.89, C 2.57, A 3.61, T 3.45, F 3.03, E 4.06
S14: M 2.42, N 3.61, A 3.3, W 2.46, E 4.31, F 2.51, T 3.37, Q 3.89, C 2.41, P 3.54, H 2.93, G 2.82, Y 2.36, D 3.94, V 2.62, I 3.16, K 2.98, L 2.35, R 3.81
L9: C 3.35, D 4.2, F 2.94, R 3.74, P 3.96, G 4.28, N 3.83, I 3.25, M 3.35, A 3.61, H 4.06, W 3.32, Q 3.68, T 3.67, V 3.76, K 3.42, Y 2.63, S 4.06, E 3.96
D7: W 3.99, Q 3.52, Y 3.27, T 3.51, P 3.09, I 2.55, L 2.73, N 2.41, M 3.12, V 2.63, R 3.39, K 3.31, S 3.14
L11: Y 3.75, T 3.54, M 3.94, G 3.95, Q 3.39, F 3.01, K 4.2, W 2.99, D 4.11, V 3.04, S 3.96, R 3.38, N 3.92, C 3.75, H 3.47, I 3.97, E 4.42, P 4.55, A 3.76
